Data from the supplement of paper PMC12764529.
± gives the half width of the 95% confidence interval.

Experiments:
[1] = folding stability dG unfold from chymotrypsin proteolysis; higher = more stable
Description: (§1)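 Folding stability of de novo designed mini-proteins (<80 aa, no Cys; designed by TrROS, TrMRF, ProteinMPNN and the joint model) was measured by cDNA display proteolysis with trypsin and chymotrypsin. Each protease was used at 11 concentrations in a threefold dilution series plus a no-protease condition. K50 was inferred by Bayesian fitting of sequencing counts, and dG unfold was derived against a sequence-predicted unfolded-state K50 (Tsuboyama et al. method). Sequences shown include variable-length N-terminal GS-type padding (SAGGSAGG...) inside a display construct carrying a PA tag. Rows were kept only if the AF2 dimer inter-PAE was >15, to exclude likely homo-oligomers.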

[2] = folding stability dG unfold (combined trypsin and chymotrypsin); higher = more stable
Description: as §1

Row | Sequence | folding stability dG unfold [1] | folding stability dG unfold [2]
1 | SAGGGSSSSSIATETFTKEVEVPTEDGKLKKVLVTTTVSRPISLEPKTGKKYSLSTTVTTTTVSPEELSAGG [r13_312_JUSTAS] | -0.461 ± 0.58 kcal/mol | < -1 kcal/mol
2 | SAGGGSSVTYDPATGEVTVTLHPVDPHPGRLRSRTLPLPAPGSPEEVRERIRALVEAEPAWSTDLTAASAGG [r13_284_JUSTAS] | 0.892 ± 0.12 kcal/mol | 0.423 ± 0.18 kcal/mol
3 | SAGGGSTVVTTTEPAAAVRARVEAEARARGVALDVDVTVEPTPEGPVVTFDVRVDPGAPAVPAANRVSAGGS [r16_262_JUSTAS] | 0.0214 ± 0.23 kcal/mol | -0.629 ± 0.25 kcal/mol
4 | SAGGGTVVDPGPRVVTITVRPPDGKPRTITLPLPDATPEEIRARLEAVAAALPEAGATVDVLDIRPLPSAGG [r13_29_JUSTAS] | 0.941 ± 0.024 kcal/mol | 0.397 ± 0.064 kcal/mol
5 | SAGGIKELQEALREGNLPEIIKELKKRGYENVKIQPNPDEGTIEIEIERKDPEDGKPEEEELTIPLEPSAGG [r13_359_TrROS] | 0.184 ± 0.084 kcal/mol | -0.271 ± 0.21 kcal/mol
6 | SAGGIRLEIPPNWTPEEAKEQAEELANFFAKKGPMEVEDIEYKRDEKDGNPMIVGEIRDPKNGKEWTISAGG [r13_669_TrROS] | -0.127 ± 0.3 kcal/mol | -0.754 ± 0.68 kcal/mol
7 | SAGGKITIDVNYNPEENNFRIKITWPNGKEKELPIPMEGMPAEDMRREAREFAQNLNPDGLKEVEIEPSAGG [r13_267_TrROS] | 0.369 ± 0.21 kcal/mol | 0.285 ± 0.43 kcal/mol
8 | SAGGKITIEKKEDGTYTITINGKKFTFKFKPGAKVEIKIEKKKDGTYTITITVTNKDGSKKTFKIKLSAGGS [r16_231_TrROS_Hall] | 4.85 ± 0.26 kcal/mol | 4.87 ± 0.47 kcal/mol
9 | SAGGLSVSSVSTGSDKITVTVTGSGSPVATVEIPPGLPNTEVTATVLPDGSVRVELKTGNTPRTIEVPLSAG [r5_533_JUSTAS] | -0.445 ± 0.14 kcal/mol | -0.783 ± 0.28 kcal/mol
10 | SAGGLTLSTFESDEDVKPEWDPNKPVKVKVKTLTTTEPVPNRPHTVTTTTTLRENEEGTTPFTGTDTSAGGS [r16_300_JUSTAS] | 0.612 ± 0.061 kcal/mol | -0.11 ± 0.12 kcal/mol
11 | SAGGMAEELAKLLKELFPDEEVEVEVKVEEKEVNGKKYLTITVTVRNKKTGKKIKEIKLVIELPEEESAGGS [r8_207_TrROS_Hall] | 4.23 ± 0.32 kcal/mol | > 6 kcal/mol
12 | SAGGMESPVKAVDPSTGAERSFTIPREEAEALLAAGETTIEIPYSGGPMTVEITPLPDGTYAITGKAPSAGG [r13_171_JUSTAS] | 0.206 ± 0.24 kcal/mol | -0.16 ± 0.14 kcal/mol
13 | SAGGMESSVLSVSTITRSAPPGSPLASTTATVTVTKTDGRTIVTVPATGVVYTVNPDGTVTADPVDPPSAGG [r13_721_JUSTAS] | -0.515 ± 0.4 kcal/mol | < -1 kcal/mol
14 | SAGGMIEKVEIREVDPETGEVTVTFHVPSEDLEKLGPIPFPGVKEVRFFPGEKTIEARMPLEDALKHSAGGS [r16_614_TrMRF] | 0.538 ± 0.098 kcal/mol | -0.0448 ± 0.19 kcal/mol
15 | SAGGMKKIKVPDGSEIGSVNPKGGIDYVKVKLPGSGVLVEKAVPKGGKLVIPKNIPVELVEIKDYPLSAGGS [r16_123_TrMRF] | -0.0202 ± 0.12 kcal/mol | -0.366 ± 0.2 kcal/mol
16 | SAGGMKLTLTFTETSVLPDGTPVTTTSTTPLSPDVPVEEVAAALAETNPDVTVTVHEPSTGSTRTLRTSAGG [r13_663_JUSTAS] | 0.0497 ± 0.13 kcal/mol | -0.351 ± 0.14 kcal/mol
17 | SAGGMKVTPLGTEPRPDGTTTTTYLSTLPNGTPVTTTTTTSTIPPPPVPPFSPEEVAAAAARRAAAASAGGS [r16_8_JUSTAS] | 0.249 ± 0.21 kcal/mol | < -1 kcal/mol
18 | SAGGMLKVEVIEVPPDEVGPEKLRAEIKAKYPDVEVRFETLPDGTLRVTVEIPVPEEPSKPLPLEKKSAGGS [r16_535_JUSTAS] | 0.743 ± 0.077 kcal/mol | 0.482 ± 0.3 kcal/mol
19 | SAGGMMRTVTEPLSPEELEELRKEGWTVLGTEPGKVTVRVPVVPPLSPEEVAQARAAGLSEAEAAAARSAGG [r19_115_JUSTAS] | 0.587 ± 0.14 kcal/mol | 0.0214 ± 0.28 kcal/mol
20 | SAGGMPDRVRPFPFRAPVLRLDPPEPEEVEVVAFVFPDNRVLALARSPDPGRVLLAVDDGDRVLVADASAGG [r13_117_TrMRF] | 0.12 ± 0.15 kcal/mol | -0.477 ± 0.19 kcal/mol
